Here are results for 96 substances from the supplement of paper PMC12042874.

± gives the uncertainty stated by the source.

A short description of this data set: amyloid nucleation score (Sup35N fusion, yeast selection) (log enrichment); library NNK3; higher = more nucleation; inactive = no reads after selection. In a few lines:
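Sup35N fusions to peptides of 20 random codons were expressed in psi-negative yeast, induced 24 hours with 100 μM copper sulfate, and grown 7 days at 30°C on medium lacking adenine and uracil. Input and output plasmid inserts were sequenced by Illumina. The nucleation score is the DiMSum log enrichment of output over input reads, centred on the mode score of non-aggregating sequences. Sequences with under 100 input reads were excluded.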
Turning to CRHRYLDCCFGNWHP, the amyloid nucleation score result was “inactive”. The entry for FNTFVPRKYH is “inactive”. The entry for FAICSYANAEVSWKDGESAY is “inactive”; for ELNIN it is “inactive”; for RVGAVMVEGRFLYHA it is 0.522 ± 0.38. As for SSEPMHLEASIPVFAKE, the entry is “inactive”; as for IYTNWYEFRV, “inactive”; as for SFLSWVKYWERSCPDHSIWF, “inactive”. For QHNLRDGMFLNGTYRNDAVR, the amyloid nucleation score result is “inactive”.

With LDRVSTVGSKNLFQRCCKIS, the amyloid nucleation score result was “inactive”. Regarding FFVYHTILRLPNGAGLRCGP, the amyloid nucleation score entry is “inactive”. In the case of VLGYILMRLRLYKIQVDISG, the amyloid nucleation score result was “inactive”. As for LLSFENNSQLVYVCIDNTLE, the entry is “inactive”; as for HILSCSQVFG, 0.025 ± 0.6. The entry for RQGYVADNSTGESDIGDGLG is “inactive”; for SSTYSGCWLVLSIKRFVLIE it is “inactive”. As for YCSIGLLCTSCIASVGIWVI, the entry is “inactive”. For MALWASSKAEVIVVIKCLGD, the amyloid nucleation score entry was “inactive”. As for RTISGYSPSIVGQRDSRGFL, the entry is “inactive”; as for NRGFYQ, “inactive”; as for CASSWLF, “inactive”. As for SACECAPTTSRIRPGSSATR, the entry is “inactive”.

For NLGTTLYVEICNWRIVLYIV, the amyloid nucleation score result is “inactive”. SFIIVILYGDHALYFTYEAV: the amyloid nucleation score result was “inactive”.

Turning to TVTHALLSYKCHNG, the amyloid nucleation score entry is “inactive”. SQSFYLFLGQRSRTY yielded an amyloid nucleation score of 1.33 ± 0.11. For the substance IFPFFVVFGFDTYAGI, the amyloid nucleation score result was “inactive”.

Take DHRRLPSCPIFDWFTLNRGP: the amyloid nucleation score result was “inactive”. As for VAKHNAR, the entry is “inactive”. The figure for SSYGSPIIVLNTHSTVGIRI is 1.59 ± 0.11; for NRVSFPRGSKFCTFL it is “inactive”; for LYVFRCHLVVNDLNATNCSR it is “inactive”.

As to IVCHHRDYFLAYYYEMLHCR, the amyloid nucleation score result is “inactive”. The entry for LCFNLYMFCSYVCGMAIKSL is “inactive”; for AAPMS it is “inactive”.

For the substance YHTYKDSRTGFFMGQHSCMS, the amyloid nucleation score entry is “inactive”. The entry for FYLCKRMNGSWNTLISV is “inactive”; for GYQLLNHLHAYTAGTNNLRL it is “inactive”. The figure for KCAQEYGEVLS is -0.591 ± 0.8; for HLIMNSDLGAATNIFMNPVA it is “inactive”; for MILFC it is “inactive”. The entry for DLNDGWGWKRLTFQSVRCGE is “inactive”; for YMGPKDSELDSNRAGCDMSC it is “inactive”. The substance SGLACRYCTMVGCNLNYNYW had an amyloid nucleation score of 2.58 ± 0.055. The entry for AIKLC is “inactive”; for HWYVIKLSSNGCTFAVSLRV it is “inactive”; for RSLLGGSKAVYTWDWQPAII it is “inactive”. SEIKYSYSYMRFLNCTETSN: the amyloid nucleation score entry was “inactive”.

In the case of LSGACVHSAAGSALATQYAR, the amyloid nucleation score entry was “inactive”. QEAGFMYGCYFVILQNHAGF had an amyloid nucleation score of 1.3 ± 0.092. Regarding CYWEPRSWISCRRPILRMSV, the amyloid nucleation score entry was “inactive”. The entry for LFVMSLFGHLGLQIYRCLAL is “inactive”. Regarding DLFGCPDLMMYTELIMLYW, the amyloid nucleation score entry was “inactive”. IARKQPLLSMATTSSQVFRA: the amyloid nucleation score result is “inactive”. As for GLLFYYMILLGELLQR, the entry is “inactive”. As for MSMRLRIYKFFEICANSMMP, the entry is “inactive”; as for SNYICTYIQKFSIVYCIPSH, 1.96 ± 0.08; as for RYGIFMEHEIMYHLNPDGFY, “inactive”.

Turning to CDWFILKA, the amyloid nucleation score entry is “inactive”. As for RVVNFFVGVNTNEAMFKRSV, the figure is 2.71 ± 0.067. On to VPGELGALGQACLKEDFSKG, for which the amyloid nucleation score entry was “inactive”. The entry for SYSFEYNHSDKFVSLYYMDI is “inactive”. As for VCLFICLNDDFLIRRPDCLS, the figure is 2.08 ± 0.051; as for AKNSKKSMLSVNGDRNDQSF, “inactive”; as for LLMLTEQ, “inactive”. For the substance AVMNVHFDSSVMEPIDLNRW, the amyloid nucleation score entry is “inactive”. As for GTVLNSLPQQVGCLRLGSQG, the entry is “inactive”. The entry for RSVFTTSCH is “inactive”; for SEMLFIDQLCSSSVSKYTVI it is “inactive”; for RVRNDYLPDRHWFSKHRGTK it is “inactive”. The entry for LIFCNATGFTYRWPLTWVVM is “inactive”; for DMNSACCVWHSVFYSEFYVI it is 2.19 ± 0.069; for VVILHCKTYAMASRWYGYRG it is -0.003 ± 0.81. Turning to VREMGLTHFTASLYRGEMPG, the amyloid nucleation score result was “inactive”.

As for HSLTGSHSFVGF, the amyloid nucleation score entry is “inactive”.

Take NEDST: the amyloid nucleation score entry is “inactive”. As for LITKWKWEFANTQWRSGQKG, the figure is 1.36 ± 0.15; as for YRKLVVSPLGILPKYRTPCC, “inactive”.

In the case of TGMVCNLTWVLYLMLMNRTF, the amyloid nucleation score result was “inactive”. The entry for SWASQWLFTPLSTVRSYIIL is “inactive”; for ICRLVLSNNF it is “inactive”; for DSKGIFYFFGLVSLY it is “inactive”. Take FYIFNWGFFGIKWYLIWNEI: the amyloid nucleation score result is “inactive”. The figure for YCSVFRES is 0.014 ± 0.63; for LYLTSCDIYGAGTIGRWVAV it is “inactive”.

On to LNFWTIAWARWRIFLCSVLQ, for which the amyloid nucleation score result is “inactive”. As to ARKLFCQTVEENHS, the amyloid nucleation score entry is “inactive”.

With TNTSFTIVSYTSYR, the amyloid nucleation score came out at 0.696 ± 0.27. On to IMWGYDSWFCSANHRSQFRY, for which the amyloid nucleation score is -0.314 ± 0.98. As for WEGYT, the entry is “inactive”; as for SCWRNLYSFLRKGSYSRCM, “inactive”.

As for RAALLGVSADFTKHTTRVWE, the amyloid nucleation score entry was “inactive”.

Consider PWFTMVRIGEMVLYLRMQRR, for which the amyloid nucleation score entry is “inactive”. The entry for ADVCNAFRVISICLYAIIVL is “inactive”; for RQERCGSALPCCCKMIDRRA it is “inactive”; for CTFDSSSNYADSAKLIG it is “inactive”.
